Test results: patent US20210395318A1 (Molecular Partners, published 2021)

B1: AS579 (designed binder)
chain: MRGSHHHHHHGSDLGKKLLEAARAGQDDEVRELLKAGADVNAKDYFSHTPLHLAARNGHLKIVEVLLKAGADVNAKDFAGKTPLHLAAADGHLEIVEVLLKAGADVNAQDIFGKTPADIAADAGHEDIAEVLQKAAGSPTPTPTTPTPTPTTPTPTPTGSDLGKKLLEAARAGQDDEVRELLKAGADVNAKDYFSHTPLHLAARNGHLKIVEVLLKAGADVNAKDFAGKTPLHLAAADGHLEIVEVLLKAGADVNAQDIFGKTPADIAADAGHEDIAEVLQKAAGSPTPTPTTPTPTPTTPTPTPTGSDLGEKLLVAALYGQDDEVRELLKAGADVNAKDQWGLTPLHKAALQGHLEIVEVLLKAGADVNAKDERGHTPLHWAARFGHLEIVEVLLKAGADVNAQDQKGYTPADLAALWGHEDIAEVLQKAAGSPTPTPTTPTPTPTTPTPTPTGSDLGKKLLQAARAGQLDEVRELLKAGADVNAKDTWGFTPLHIAAESGHLEIVEVLLKAGADVNAKDVQGRTPLHIAAHSGHLEIVEVLLKAGADVNAKDFRGWTPLHLAAWSGHLEIVEILLKAGADVNAQDKSGKTPADLAARAGHQDIAEVLQKAAGSPTPTPTTPTPTPTTPTPTPTGSDLGKKLLQAARAGQLDEVRELLKAGADVNAKDTWGFTPLHIAAESGHLEIVEVLLKAGADVNAKDVQGRTPLHIAAHSGHLEIVEVLLKAGADVNAKDFRGWTPLHLAAWSGHLEIVEILLKAGADVNAQDKSGKTPADLAARAGHQDIAEVLQKAA
B2: SMA014 (designed binder)
chain: MRGSHHHHHHGSDLGEKLLVAALYGQDDEVRELLKAGADVNAKDQWGLTPLHKAALQGHLEIVEVLLKAGADVNAKDERGHTPLHWAARFGHLEIVEVLLKAGADVNAQDQKGYTPADLAALWGHEDIAEVLQKAAGSPTPTPTTPTPTPTTPTPTPTGSDLGKKLLQAARAGQLDEVRELLKAGADVNAKDTWGFTPLHIAAESGHLEIVEVLLKAGADVNAKDVQGRTPLHIAAHSGHLEIVEVLLKAGADVNAKDFRGWTPLHLAAWSGHLEIVEILLKAGADVNAQDKSGKTPADLAARAGHQDIAEVLQKAA
B3: SMA095 (designed binder)
chain: MRGSHHHHHHGSDLGKKLLEAARAGQDDEVRELLKAGADVNAKDYFSHTPLHLAARNGHLKIVEVLLKAGADVNAKDFAGKTPLHLAAADGHLEIVEVLLKAGADVNAQDIFGKTPADIAADAGHEDIAEVLQKAAGSPTPTPTTPTPTPTTPTPTPTGSDLGEKLLVAALYGQDDEVRELLKAGADVNAKDQWGLTPLHKAALQGHLEIVEVLLKAGADVNAKDERGHTPLHWAARFGHLEIVEVLLKAGADVNAQDQKGYTPADLAALWGHEDIAEVLQKAAGSPTPTPTTPTPTPTTPTPTPTGSDLGKKLLQAARAGQLDEVRELLKAGADVNAKDTWGFTPLHIAAESGHLEIVEVLLKAGADVNAKDVQGRTPLHIAAHSGHLEIVEVLLKAGADVNAKDFRGWTPLHLAAWSGHLEIVEILLKAGADVNAQDKSGKTPADLAARAGHQDIAEVLQKAAGSPTPTPTTPTPTPTTPTPTPTGSDLGKKLLEAARAGQDDEVRELLKAGADVNAKDYFSHTPLHLAARNGHLKIVEVLLKAGADVNAKDFAGKTPLHLAAADGHLEIVEVLLKAGADVNAQDIFGKTPADIAADAGHEDIAEVLQKAA
B4: SMA099 (designed binder)
chain: MRGSHHHHHHGSDLGKKLLEAARAGQDDEVRELLKAGADVNAKDYFSHTPLHLAARNGHLKIVEVLLKAGADVNAKDFAGKTPLHLAAADGHLEIVEVLLKAGADVNAQDIFGKTPADIAADAGHEDIAEVLQKAAGSPTPTPTTPTPTPTTPTPTPTGSDLGEKLLVAALYGQDDEVRELLKAGADVNAKDQWGLTPLHKAALQGHLEIVEVLLKAGADVNAKDERGHTPLHWAARFGHLEIVEVLLKAGADVNAQDQKGYTPADLAALWGHEDIAEVLQKAAGSPTPTPTTPTPTPTTPTPTPTGSDLGKKLLQAARAGQLDEVRELLKAGADVNAKDTWGFTPLHIAAESGHLEIVEVLLKAGADVNAKDVQGRTPLHIAAHSGHLEIVEVLLKAGADVNAKDFRGWTPLHLAAWSGHLEIVEILLKAGADVNAQDKSGKTPADLAARAGHQDIAEVLQKAAGSPTPTPTTPTPTPTTPTPTPTGSDLGKKLLQAARAGQLDEVRELLKAGADVNAKDTWGFTPLHIAAESGHLEIVEVLLKAGADVNAKDVQGRTPLHIAAHSGHLEIVEVLLKAGADVNAKDFRGWTPLHLAAWSGHLEIVEILLKAGADVNAQDKSGKTPADLAARAGHQDIAEVLQKAAGSPTPTPTTPTPTPTTPTPTPTGSDLGKKLLEAARAGQDDEVRELLKAGADVNAKDYFSHTPLHLAARNGHLKIVEVLLKAGADVNAKDFAGKTPLHLAAADGHLEIVEVLLKAGADVNAQDIFGKTPADIAADAGHEDIAEVLQKAA
B5: SMA091 (designed binder)
chain: MRGSHHHHHHGSDLGKKLLEAARAGQDDEVRELLKAGADVNAKDYFSHTPLHLAARNGHLKIVEVLLKAGADVNAKDFAGKTPLHLAAADGHLEIVEVLLKAGADVNAQDIFGKTPADIAADAGHEDIAEVLQKAAGSPTPTPTTPTPTPTTPTPTPTGSDLGEKLLVAALYGQDDEVRELLKAGADVNAKDQWGLTPLHKAALQGHLEIVEVLLKAGADVNAKDERGHTPLHWAARFGHLEIVEVLLKAGADVNAQDQKGYTPADLAALWGHEDIAEVLQKAAGSPTPTPTTPTPTPTTPTPTPTGSDLGKKLLQAARAGQLDEVRELLKAGADVNAKDTWGFTPLHIAAESGHLEIVEVLLKAGADVNAKDVQGRTPLHIAAHSGHLEIVEVLLKAGADVNAKDFRGWTPLHLAAWSGHLEIVEILLKAGADVNAQDKSGKTPADLAARAGHQDIAEVLQKAAGSPTPTPTTPTPTPTTPTPTPTGSDLGKKLLQAARAGQLDEVRELLKAGADVNAKDTWGFTPLHIAAESGHLEIVEVLLKAGADVNAKDVQGRTPLHIAAHSGHLEIVEVLLKAGADVNAKDFRGWTPLHLAAWSGHLEIVEILLKAGADVNAQDKSGKTPADLAARAGHQDIAEVLQKAA

The binders below were run against T1, human CD40 on primary human B cells or human monocyte-derived dendritic cells (human, UniProt P25942 21-277) (assay: cell-based or functional assay).
T1 sequence (P25942 21-277 H80K/K81H limits assumed): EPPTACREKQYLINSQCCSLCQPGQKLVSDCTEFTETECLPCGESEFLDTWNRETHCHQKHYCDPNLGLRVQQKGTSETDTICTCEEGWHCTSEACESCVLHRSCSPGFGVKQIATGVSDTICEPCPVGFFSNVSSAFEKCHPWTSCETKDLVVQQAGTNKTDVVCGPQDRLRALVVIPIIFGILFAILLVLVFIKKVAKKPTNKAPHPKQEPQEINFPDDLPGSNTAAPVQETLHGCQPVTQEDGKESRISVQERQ
For B1, the “EC50, % CD86, human B cells with FAP-CHO cells, w HSA” value (shortened to “EC50, % CD86, human B cells … w HSA”) was 10.2 nM, the “EC50, % CD86, human B cells with FAP-CHO cells, w/o HSA” value (from here on “EC50, % CD86, human B cells … w/o HSA”) was 2.27 nM and the “EC50, MFI CD86, human B cells with FAP-CHO cells, w HSA” value (“EC50, MFI CD86, human B cells … w HSA” below) was 23.1 nM. For the same binder, the “EC50, MFI CD86, human B cells with FAP-CHO cells, w/o HSA” value (from here on “EC50, MFI CD86, human B cells … w/o HSA”) was 10 nM. For B2, the “EC50, % CD86, human B cells … w HSA” value was 6.15 nM, the “EC50, % CD86, human B cells … w/o HSA” value was 4.21 nM and the “EC50, MFI CD86, human B cells … w HSA” value was 7.7 nM. The “EC50, MFI CD86, human B cells … w/o HSA” value was 8.46 nM. For B3, the “EC50, % CD86, human B cells … w/o HSA” value was 89.8 nM and the “EC50, MFI CD86, human B cells … w/o HSA” value was 288 nM. With B4 the “EC50, % CD86, human B cells … w HSA” value was 7.5 nM, the “EC50, % CD86, human B cells … w/o HSA” value was 4.68 nM and the “EC50, MFI CD86, human B cells … w HSA” value was 19.4 nM. The “EC50, MFI CD86, human B cells … w/o HSA” value was 18.2 nM. In the case of B5, the “EC50, % CD86, human B cells … w HSA” value is reported as 2.98 nM, the “EC50, % CD86, human B cells … w/o HSA” value is reported as 0.76 nM and the “EC50, MFI CD86, human B cells … w HSA” value is reported as 8.05 nM. For the same binder, the “EC50, MFI CD86, human B cells … w/o HSA” value was 3.93 nM.

Biological target: T1, human CD40 on primary human B cells or …
Assay: cell-based or functional assay
Remark: another data set of the same source
For B1, the “Efficacy [MFI at highest dose], MFI CD86, human B cells with FAP-CHO cells, w HSA” value was 1780 MFI, the “Efficacy [MFI at highest dose], MFI CD86, human B cells with FAP-CHO cells, w/o HSA” value was 4860 MFI and the “Efficacy at highest dose, % CD86, human B cells with FAP-CHO cells, w HSA” value was 71.9%. The “Efficacy at highest dose, % CD86, human B cells with FAP-CHO cells, w/o HSA” value was 83%. In the case of B2, the “Efficacy [MFI at highest dose], MFI CD86, human B cells with FAP-CHO cells, w HSA” value is reported as 2190 MFI, the “Efficacy [MFI at highest dose], MFI CD86, human B cells with FAP-CHO cells, w/o HSA” value is reported as 2440 MFI and the “Efficacy at highest dose, % CD86, human B cells with FAP-CHO cells, w HSA” value is reported as 47%. For the same binder, the “Efficacy at highest dose, % CD86, human B cells with FAP-CHO cells, w/o HSA” value was 48.4%. B3 was tested, and the “Efficacy [MFI at highest dose], MFI CD86, human B cells with FAP-CHO cells, w HSA” value was 232 MFI, the “Efficacy [MFI at highest dose], MFI CD86, human B cells with FAP-CHO cells, w/o HSA” value was 773 MFI and the “Efficacy at highest dose, % CD86, human B cells with FAP-CHO cells, w/o HSA” value was 28.7%. In the case of B4, the “Efficacy [MFI at highest dose], MFI CD86, human B cells with FAP-CHO cells, w HSA” value is reported as 1720 MFI, the “Efficacy [MFI at highest dose], MFI CD86, human B cells with FAP-CHO cells, w/o HSA” value is reported as 4950 MFI and the “Efficacy at highest dose, % CD86, human B cells with FAP-CHO cells, w HSA” value is reported as 71.7%. For the same binder, the “Efficacy at highest dose, % CD86, human B cells with FAP-CHO cells, w/o HSA” value was 84.4%. In the case of B5, the “Efficacy [MFI at highest dose], MFI CD86, human B cells with FAP-CHO cells, w HSA” value is reported as 2980 MFI, the “Efficacy [MFI at highest dose], MFI CD86, human B cells with FAP-CHO cells, w/o HSA” value is reported as 6230 MFI and the “Efficacy at highest dose, % CD86, human B cells with FAP-CHO cells, w HSA” value is reported as 75.6%. The “Efficacy at highest dose, % CD86, human B cells with FAP-CHO cells, w/o HSA” value was 78.2%.

Biological target: T1, human CD40 on primary human B cells or …
Assay: cell-based or functional assay
Remark: another data set of the same source
For B1, the “Efficacy [MFI at highest dose], MFI CD86, human B cells with WT-CHO cells (no FAP), w HSA” value (from here on “Efficacy [MFI at highest dose] … (no FAP), w HSA”) was 242 MFI, the “Efficacy [MFI at highest dose], MFI CD86, human B cells with WT-CHO cells (no FAP), w/o HSA” value was 252 MFI and the “Efficacy at highest dose, % CD86, human B cells with WT-CHO cells (no FAP), w HSA” value was 40.1%. The “Efficacy at highest dose, % CD86, human B cells with WT-CHO cells (no FAP), w/o HSA” value was 42%. In the case of B2, the “Efficacy [MFI at highest dose] … (no FAP), w HSA” value is reported as 310 MFI, the “Efficacy [MFI at highest dose], MFI CD86, human B cells with WT-CHO cells (no FAP), w/o HSA” value is reported as 294 MFI and the “Efficacy at highest dose, % CD86, human B cells with WT-CHO cells (no FAP), w HSA” value is reported as 13.3%. The “Efficacy at highest dose, % CD86, human B cells with WT-CHO cells (no FAP), w/o HSA” value was 13.2%. In the case of B3, the “Efficacy [MFI at highest dose] … (no FAP), w HSA” value is reported as 306 MFI, the “Efficacy [MFI at highest dose], MFI CD86, human B cells with WT-CHO cells (no FAP), w/o HSA” value is reported as 299 MFI and the “Efficacy at highest dose, % CD86, human B cells with WT-CHO cells (no FAP), w HSA” value is reported as 13.7%. For the same binder, the “Efficacy at highest dose, % CD86, human B cells with WT-CHO cells (no FAP), w/o HSA” value was 12.5%. For B4, the “Efficacy [MFI at highest dose] … (no FAP), w HSA” value was 274 MFI, the “Efficacy [MFI at highest dose], MFI CD86, human B cells with WT-CHO cells (no FAP), w/o HSA” value was 289 MFI and the “Efficacy at highest dose, % CD86, human B cells with WT-CHO cells (no FAP), w HSA” value was 42.5%. The “Efficacy at highest dose, % CD86, human B cells with WT-CHO cells (no FAP), w/o HSA” value was 47.4%. For B5, the “Efficacy [MFI at highest dose] … (no FAP), w HSA” value was 296 MFI, the “Efficacy [MFI at highest dose], MFI CD86, human B cells with WT-CHO cells (no FAP), w/o HSA” value was 290 MFI and the “Efficacy at highest dose, % CD86, human B cells with WT-CHO cells (no FAP), w HSA” value was 43.1%. The “Efficacy at highest dose, % CD86, human B cells with WT-CHO cells (no FAP), w/o HSA” value was 47.8%.
